The data set concerns the target T1, IFIT2 (GST-Ifit2, wild type) (Mus musculus, UniProt Q64112 1-472).
T1 sequence: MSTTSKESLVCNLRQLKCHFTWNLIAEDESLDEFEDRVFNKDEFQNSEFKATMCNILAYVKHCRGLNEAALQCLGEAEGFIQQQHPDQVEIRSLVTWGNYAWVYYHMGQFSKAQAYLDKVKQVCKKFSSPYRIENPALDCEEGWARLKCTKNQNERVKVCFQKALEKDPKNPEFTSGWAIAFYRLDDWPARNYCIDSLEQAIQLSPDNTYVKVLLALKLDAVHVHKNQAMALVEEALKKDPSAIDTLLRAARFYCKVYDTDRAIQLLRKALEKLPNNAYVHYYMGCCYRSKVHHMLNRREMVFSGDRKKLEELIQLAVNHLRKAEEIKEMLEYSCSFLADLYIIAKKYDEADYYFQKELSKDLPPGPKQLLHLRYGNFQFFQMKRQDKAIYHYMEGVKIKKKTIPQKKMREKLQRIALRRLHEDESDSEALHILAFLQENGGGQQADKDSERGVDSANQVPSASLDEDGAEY
In words: EMSA; 250 nM protein; at least two complexes; EMSA: 10 fmol labeled RNA in 10 uL, 250 nM protein, 50 mM Tris pH 8, 90 mM NaCl, 1 mM MgCl2, 9% glycerol, 0.05% Triton X-100, 30 min on ice; 6% native PAGE at 4 C. To be noted: protein: recombinant; tags: N-terminal GST (pGEX-6P-3); chain copies: 2; label: 5'-32P (T4 PNK); single strand. For orientation: Mobility shift assays separate free from complexed probe on a gel.

Consider AUUAAUUUAUAAUUUAAAUUAUUUUCUACUUU (ssRNA) [32-nt AU-rich ssRNA], for which the binding result is given as “binds”.

These data come from publication PMC11253605.
